Laboratory results as given in article doi:10.1101/2020.08.31.20184481.

Key:
R1003W GFP-βIISp (human) = R1003W GFP-βIISp (human) (UniProt Q01082); experiment: pull-down
F-actin = F-actin (UniProt P68135); experiment: co-sedimentation

R1003W GFP-βIISp (human), sequence (Q01082 whole entry R1003W): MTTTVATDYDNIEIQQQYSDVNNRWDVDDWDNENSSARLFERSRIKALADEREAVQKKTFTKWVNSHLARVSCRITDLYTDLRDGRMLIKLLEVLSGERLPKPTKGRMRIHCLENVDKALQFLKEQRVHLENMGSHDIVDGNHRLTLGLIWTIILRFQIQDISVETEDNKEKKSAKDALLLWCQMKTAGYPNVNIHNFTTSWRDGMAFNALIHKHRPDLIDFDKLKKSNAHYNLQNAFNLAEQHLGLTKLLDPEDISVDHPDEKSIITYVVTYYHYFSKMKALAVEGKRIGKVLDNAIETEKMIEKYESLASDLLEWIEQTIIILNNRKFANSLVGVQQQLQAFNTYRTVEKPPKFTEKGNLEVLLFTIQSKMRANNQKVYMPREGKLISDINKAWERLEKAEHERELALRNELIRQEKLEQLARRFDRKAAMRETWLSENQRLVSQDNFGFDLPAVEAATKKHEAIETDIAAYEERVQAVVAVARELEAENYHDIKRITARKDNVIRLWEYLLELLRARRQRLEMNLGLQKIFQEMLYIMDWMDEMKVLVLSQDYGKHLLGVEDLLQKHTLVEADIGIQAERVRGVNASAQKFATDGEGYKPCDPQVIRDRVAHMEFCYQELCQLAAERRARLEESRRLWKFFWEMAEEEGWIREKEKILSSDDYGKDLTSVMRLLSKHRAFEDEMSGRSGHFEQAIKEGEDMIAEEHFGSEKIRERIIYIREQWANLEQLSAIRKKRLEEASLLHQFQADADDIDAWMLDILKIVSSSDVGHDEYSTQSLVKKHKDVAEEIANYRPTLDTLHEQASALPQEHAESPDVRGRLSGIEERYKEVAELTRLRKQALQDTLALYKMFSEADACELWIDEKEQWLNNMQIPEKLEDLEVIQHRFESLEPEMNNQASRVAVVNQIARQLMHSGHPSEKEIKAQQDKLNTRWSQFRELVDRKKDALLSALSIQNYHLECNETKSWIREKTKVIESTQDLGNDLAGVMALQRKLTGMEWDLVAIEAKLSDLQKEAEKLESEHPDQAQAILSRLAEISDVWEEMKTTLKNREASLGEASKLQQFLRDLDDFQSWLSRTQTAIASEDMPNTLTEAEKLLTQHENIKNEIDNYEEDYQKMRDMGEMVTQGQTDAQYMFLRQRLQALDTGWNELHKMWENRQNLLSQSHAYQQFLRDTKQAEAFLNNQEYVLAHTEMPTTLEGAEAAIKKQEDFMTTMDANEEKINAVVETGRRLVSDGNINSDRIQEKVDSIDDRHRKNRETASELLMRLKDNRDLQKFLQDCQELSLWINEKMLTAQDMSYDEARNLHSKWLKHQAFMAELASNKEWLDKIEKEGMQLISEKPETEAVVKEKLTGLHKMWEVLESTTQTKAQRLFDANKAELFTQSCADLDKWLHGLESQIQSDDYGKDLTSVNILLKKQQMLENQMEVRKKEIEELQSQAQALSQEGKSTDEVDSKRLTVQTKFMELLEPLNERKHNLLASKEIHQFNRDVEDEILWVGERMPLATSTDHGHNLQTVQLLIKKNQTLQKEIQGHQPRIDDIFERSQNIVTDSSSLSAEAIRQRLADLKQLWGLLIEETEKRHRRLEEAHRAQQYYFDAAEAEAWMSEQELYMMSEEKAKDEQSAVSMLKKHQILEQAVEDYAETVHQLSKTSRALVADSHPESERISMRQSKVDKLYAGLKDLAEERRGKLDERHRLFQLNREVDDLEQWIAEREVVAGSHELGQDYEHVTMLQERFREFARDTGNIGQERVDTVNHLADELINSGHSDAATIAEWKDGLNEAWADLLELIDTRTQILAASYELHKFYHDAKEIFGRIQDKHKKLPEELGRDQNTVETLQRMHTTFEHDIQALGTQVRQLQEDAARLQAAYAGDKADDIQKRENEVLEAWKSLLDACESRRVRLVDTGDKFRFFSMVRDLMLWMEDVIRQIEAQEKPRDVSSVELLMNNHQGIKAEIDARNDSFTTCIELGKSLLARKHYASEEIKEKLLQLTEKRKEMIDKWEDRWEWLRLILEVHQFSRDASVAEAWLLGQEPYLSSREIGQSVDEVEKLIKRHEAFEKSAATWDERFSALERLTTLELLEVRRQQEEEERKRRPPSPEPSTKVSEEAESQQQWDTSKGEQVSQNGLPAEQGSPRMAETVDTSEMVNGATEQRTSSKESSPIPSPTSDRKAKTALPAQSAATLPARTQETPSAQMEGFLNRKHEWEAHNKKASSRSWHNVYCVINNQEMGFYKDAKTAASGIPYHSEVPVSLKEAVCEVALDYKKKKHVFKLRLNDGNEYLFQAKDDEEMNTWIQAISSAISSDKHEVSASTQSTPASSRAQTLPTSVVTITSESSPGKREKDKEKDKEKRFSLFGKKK

Row | Substance | percent less association with F-actin than WT (F-actin) | further results
1 | mCherry-tagged αII-spectrin, Q13813-2 1-2477 | – | percent reduction of association against WT GFP-βIISp (R1003W GFP-βIISp (human)): 40%
2 | purified full-length βII-spectrin p.A850G (from UniProt Q01082-1 1-2364) (natural protein) | – | percent higher F-actin binding than WT (F-actin): 50%
3 | purified full-length βII-spectrin p.I159_Q160del (from UniProt Q01082-1 1-2364) (natural protein) | 70% | –
4 | purified full-length βII-spectrin p.T59I (from UniProt Q01082-1 1-2364) (natural protein) | 40% | –
